From US20110076265A1 (POMONA RICERCA S R L, published 2011) come the findings set out here.

In this test the target is T1, HA protein (H1-subtype hemagglutinin) of influenza A virus A/California/04/2009 (influenza A virus A/California/04/2009 …, UniProt P26140 18-566).
T1 construct: also called H1 HA (A/California/04/2009)
Description: FACS on fixed HEK 293T cells transfected with HA construct, Fab49 at 10 µg/ml.

B1: Fab49 (human monoclonal Fab fragment produced by bacterial clone INF49) (Fab, V domains shown)
VH: LESGGGLVQPGGSLRLSCAASGITFSSYAMSWVRQAPGKGLEWVSTVNSGGGSTYYGDSVRGRFTISRDNSKSTLYLQLNSLRAEDTAIYYCAKDKGRPIFGLVTPSYYMDVWGNGT
VL: ELTQSPSSLSASVGDSVTITCRTSERISTYLNWYQQKPGKAPRLLVSGASTLQGGVPSRFSGSGSGTAFTLTINSLQPEDFATYYCQQSYSTPLTFGGGT
Take B1: the binding result is reported as “binds”.
